For three substances, response (relative fold induction) results are on record in publication PMC12795458.

The assay has as its target RipA fused to the Nanoluciferase large subunit (CEPlac-lgbit-ripA). As to the kind of experiment: split-luciferase assay. The conditions noted are these: in S. pneumoniae cells, signal relative to control strains R5380 and R5570, read off a plot.

As to “DnaN fused to the Nanoluciferase small subunit (CEPIIlac-smBit-dnaN) (from UniProt O06672) H183P”, the response (relative fold induction) (strain R5566 vs R5381, parent: est. 22) was found to be 4.8.
With “DnaN fused to the Nanoluciferase small subunit (CEPIIlac-smBit-dnaN) (from UniProt O06672) L185R”, the response (relative fold induction) (strain R5567 vs R5381, parent: est. 27) is 5.5.
“DnaN fused to the Nanoluciferase small subunit (CEPIIlac-smBit-dnaN) (from UniProt O06672) Y249N”: the response (relative fold induction) (strain R5568 vs R5381, parent: est. 13) came to 4.8.
